Columns and labels:
[1] = Arginase specific activity; format: biochemical; conditions: purified arginase sample, or after pegylation with mPEG-SPA MW 5,000 (mole ratio 1:50)
Protocol: The purified Arginase as prepared using the methods described above was used for pegylation. Using the previous examples to illustrate the method, an arginase sample with specific activity=518 I.U./mg was dissolved in PBS buffer before carrying out pegylation.
The mPEG-SPA (cat. no. 2M4MOH01, Nektar, USA), MW 5,000 (5.82 g) was added into 555 ml of the purified Arginase (813.64 mg, 1.466 mg/ml) solution slowly in a 1 L beaker and then stirred for 2 h 40 min at room temperature (mole ratio of Arginase:mPEG-SPA=1:50). The mixture was then dialyzed extensively by ultra-dialysis against 15 L of PBS buffer using the F50(S) capillary dialyzer (Fresenius Medical Care, Bad Homburg, Germany) to remove all the unincorporated PEG. The mPEG-SPA uses amino groups of lysines and the N-terminus of the protein as the site of modification. In this example, the measured specific activity of the pegylated Arginase was as high as 592 I.U./mg.

[2] = ½-life determination of pegylated Arginase in vitro in human blood plasma; format: in vitro ADME; conditions: 37° C., 0.24 mg/ml pegylated Arginase
Protocol: As used herein, the term “half-life” (½-life) refers to the time that would be required for the concentration of the Arginase in human plasma in vitro, to fall by half.
Purified Arginase (1 mg) was dissolved in 1 ml of 125 mM borate buffer solution (pH 8.3) on ice. Activated PEG (mPEG-SPA, MW 5,000) (7.14 mg) was added into the protein solution slowly at a mole ratio of Arginase:PEG=1:50. The mixture was stirred on ice for 2.5 h.
Pegylated Arginase (305.6 μl) at a concentration of 1 mg/ml was added into human plasma (1 ml) and the final concentration of pegylated Arginase was 0.24 mg/ml. The mixture was divided into 20 aliquots in eppendorf tubes (65 μl mixture in each eppendorf tube) and then incubated at 37° C. A 1-2 μl portion of the mixture from each eppendorf tube was used to test the Arginase activity. In this example, the ½-life was determined to be approximately 3 days. It took about 3 days to reduce the relative activity from 100% to 50%.

B1: arginase: Recombinant human Arginase I with N-terminal 6xHis tag (SEQ ID NO: 3), produced in B. subtilis LLC101 (protein, listed as Homo sapiens)
chain: MHHHHHHMSAKSRTIGIIGAPFSKGQPRGGVEEGPTVLRKAGLLEKLKEQECDVKDYGDLPFADIPNDSPFQIVKNPRSVGKASEQLAGKVAQVKKNGRISLVLGGDHSLAIGSISGHARVHPDLGVIWVDAHTDINTPLTTTSGNLHGQPVSFLLKELKGKIPDVPGFSWVTPCISAKDIVYIGLRDVDPGEHYILKTLGIKYFSMTEVDRLGIGKVMEETLSYLLGRKKRPIHLSFDVDGLDPSFTPATGTPVVGGLTYREGLYITEEIYKTGLLSGLDIMEVNPSLGKTPEEVTRTVNTAVAITLACFGLAREGNHKPIDYLNPPK
modifications: N-terminal 6xHis tag
[1]
  specific activity: 518 I.U./mg

B2: pegylated Arginase: Arginase I modified by pegylation with mPEG-SPA MW 5,000 to increase stability and minimize immunoreactivity (protein, UniProt P05089 1-322, looked up)
Arginase-1: MSAKSRTIGIIGAPFSKGQPRGGVEEGPTVLRKAGLLEKLKEQECDVKDYGDLPFADIPNDSPFQIVKNPRSVGKASEQLAGKVAEVKKNGRISLVLGGDHSLAIGSISGHARVHPDLGVIWVDAHTDINTPLTTTSGNLHGQPVSFLLKELKGKIPDVPGFSWVTPCISAKDIVYIGLRDVDPGEHYILKTLGIKYFSMTEVDRLGIGKVMEETLSYLLGRKKRPIHLSFDVDGLDPSFTPATGTPVVGGLTYREGLYITEEIYKTGLLSGLDIMEVNPSLGKTPEEVTRTVNTAVAITLACFGLAREGNHKPIDYLNPPK
modifications: mPEG-SPA 5 kDa
[2]
  ½-life (time for relative Arginase activity to fall from 100% to 50%): approximately 3 days
[1]
  specific activity: 592 I.U./mg
